Reference: patent US20260015418A1 (ABL BIO, published 2026)
Residue numbers refer to the chain shown, from its start. Names may count otherwise. “And” between values parts separate entries of the source, which are not always exact repeats. Identical values can stand only once.

Columns and labels:
[1] = target: T1, human ROR1 protein (ROR1-His; Sino Biological, Catalog #13968-H08H) (human, UniProt Q01973 30-406); assay: SACE ELISA on human ROR1-His; antibody stored 2 weeks at 4°C; BA6 IgG (WT), stored at 4° C.
T1 construct: extracellular domain; Bought protein; also called human recombinant ROR1 protein
Description: (§1) The binding affinity of the anti-ROR1 antibody-antigen was evaluated using an ELISA-based solution binding assay. Specifically, 96-well microtiter plates (Nunc-Immuno Plates, NUNC) were coated with ROR1 protein (ROR1-His; sino biological, Catalog #13968-H08H) at a concentration of 1 μg/ml in PBS solution at 4° C. for 16 hours, and non-specific binding sites were blocked with 1% (v/v) BSA (bovine serum albumin) for 2 hours.
(§2) Subsequently, on the 96-well microtiter plates, anti-ROR1 antibodies at concentrations stated in FIGS. 1a to 1c were added to the microtiter plates, and their binding capabilities were analyzed by ELISA as follows. Specifically, after incubating at 37° C. for 2 hours, the plates were washed five times with PBS containing 0.05% (v/v) Tween 20, then the HRP-conjugated Fab polyclonal antibody reagent (Pierce, Catalog #31414) was diluted at a 1:30,000 ratio and added to the washed microtiter plates, then reacted for 1 hour at 37° C., then detected the bound anti-ROR1 antibodies. After reaction, the color was developed using TMB (tetramethylbenzidine, Sigma, T0440). The enzymatic reaction was stopped with 0.5 mol/L sulfuric acid, and the absorbance was read at 450 nm and 650 nm using a microplate reader (Molecular Devices). […]

[2] = target: T1, human ROR1 protein (ROR1-His; Sino …); assay: ELISA, plate coated with ROR1-His (1 ug/ml), bound antibody detected with HRP-conjugated anti-Fab polyclonal antibody, OD at 450 nm; lower graph and table
Description: as §1
(§3) Subsequently, on the 96-well microtiter plates, anti-ROR1 antibodies at concentrations stated in FIGS. 1a to 1c were added to the microtiter plates, and their binding capabilities were analyzed by ELISA as follows. Specifically, after incubating at 37° C. for 2 hours, the plates were washed five times with PBS containing 0.05% (v/v) Tween 20, then the HRP-conjugated Fab polyclonal antibody reagent (Pierce, Catalog #31414) was diluted at a 1:30,000 ratio and added to the washed microtiter plates, then reacted for 1 hour at 37° C., then detected the bound anti-ROR1 antibodies. After reaction, the color was developed using TMB (tetramethylbenzidine, Sigma, T0440). The enzymatic reaction was stopped with 0.5 mol/L sulfuric acid, and the absorbance was read at 450 nm and 650 nm using a microplate reader (Molecular Devices).

[3] = target: T1, human ROR1 protein (ROR1-His; Sino …); assay: ELISA, plate coated with ROR1-His (1 ug/ml), bound antibody detected with HRP-conjugated anti-Fab polyclonal antibody, OD at 450 nm
Description: as §1, §3

[4] = target: T1, human ROR1 protein (ROR1-His; Sino …); assay: ELISA, plate coated with ROR1-His (1 ug/ml), bound antibody detected with HRP-conjugated anti-Fab polyclonal antibody, OD at 450 nm; upper graph and table
Description: as §1, §3

[5] = target: T1, human ROR1 protein (ROR1-His; Sino …); assay: as above; remark: listed apart in the source
Description: as §1, §3

[6] = target: T1, human ROR1 protein (ROR1-His; Sino …); assay: SACE ELISA on human ROR1-His; antibody stored 2 weeks at 37°C
Description: as §1, §2

[7] = target: T1, human ROR1 protein (ROR1-His; Sino …); assay: ELISA, plate coated with ROR1-His (1 ug/ml), bound antibody detected with HRP-conjugated anti-Fab polyclonal antibody, OD at 450 nm; lower graph and table; remark: listed apart in the source
Description: as §1, §3

[8] = target: T1, human ROR1 protein (ROR1-His; Sino …); assay: SACE ELISA on human ROR1-His
Description: as §1, §2

[9] = target: T1, human ROR1 protein (ROR1-His; Sino …); assay: SACE ELISA on human ROR1-His; antibody stored 2 weeks at 4°C
Description: as §1, §2

[10] = target: T2, human ROR1 on cells (NCI-N87, CHOK1-hROR1, AGS, CHO-huROR1-huB7-H3) (human, UniProt Q01973 30-937); assay: flow cytometry on CHO-huROR1-huB7-H3 cells, FITC anti-human IgG, MFI over secondary antibody only
T2 construct: whole, on cells; also called cell surface ROR1
From the text: To evaluate the cell-binding ability of the anti-ROR1/B7-H3 bispecific antibody, cells expressing both ROR1 and B7-H3 were used to compare the cell-binding ability of the bispecific antibody with that of the monospecific antibodies.
As a cell line for the comparison of cell-binding ability, CHO-huROR1-huB7-H3 cell line (obtained by transfecting the ROR1-CHO recombinant cell line (BPS Bioscience) with the human B7-H3 gene (Origene) and selecting for the desired gene-inserted single cells using G418), which stably transfected the human ROR1 and human B7-H3 gene to artificially overexpress both human ROR1 and human B7-H3 proteins were used, and analysis was performed using a flow cytometer (LSRFortessa X-20, BD Biosciences). Specifically, after dissociating and washing the overexpressing cell line with PBS, the cell number was counted, and the cells were seeded at a density of 2×10⁵ cells per well into a V-bottom 96-well plate (96 Well Plate-RV, Bioneer, 910D09). Antibodies diluted 4-fold starting from 100 nM in 1% BSA solution were added at 100 μL per well to the centrifuged cells and incubated at 4° C. for 1 hour. […] After the reaction, the cells were washed twice with the same buffer, resuspended in 100 μL of PBS, and analyzed using a FACS instrument. A total of 10,000 cells were detected per measurement, and the data was analyzed using FlowJo software. […]

B1: BA6 antibody (WT) (antibody, V domains shown)
VH: EVQLLESGGGLVQPGGSLRLSCAASGFTFSNYDMSWVRQAPGKGLEWVSAIYHSGSSKYYADSVKGRFTISRDNSKNTLYLQMNSLRAEDTAVYYCARGGNGAWDTGFDYWGQGTLVTVSS
VL: QSVLTQPPSASGTPGQRVTISCSGSSSNIGSNDVSWYQQLPGTAPKLLIYYDNNRPSGVPDRFSGSKSGTSASLAISGLRSEDEADYYCGAWDDSLSGYVFGGGTKLTVL
notes: Anti-ROR1 antibody from WO2019-225992 A1, said to be based on IgG1; only the variable domains are tied to the monospecific IgG; also called BA6 IgG (WT); parental clone
In the case of B1, the EC50 [1] is reported as 217 pM, the EC50 [2] is reported as 215 pM and the EC50 [3] is reported as 293 pM. It also gave an EC50 [4] of 1000 pM, an EC50 [5] of 707 pM and an EC50 [6] of 261 pM. The EC50 [7] was 293 pM and the “Ratio (EC50, 4°C sample against 37°C sample)” value [8] was 83.1%.

B2: BA6M11 anti-ROR1 antibody (IgG) (antibody, V domains shown)
VH: B1 VH with N101S
VL: B1 VL with D52E
notes: IgG form; also called BA6 IgG (M11); double mutant D51E (LC)+N97S (HC)
With B2 the EC50 [2] was 144 pM and 133 pM, the EC50 [6] was 129 pM and the EC50 [9] was 166 pM. The “EC50 (read off the curve)” value [10] was ~700 pM and the “Ratio (EC50, 4°C sample against 37°C sample)” value [8] was 129%.
